According to US20220348686A1 (Memorial Sloan Kettering, published 2022):
Changes are numbered by the printed parent chain. Numbers in names are those of the source.

B1: BC259 (VH-1+VL-1 BsAb variant) (bispecific antibody, V domains shown)
VH: QVQVQESGPGLVKPSQTLSLTCTVTGYSITSDYAWNWIRQPPGKGLEWMGYISNSGSTSYNPSLKSRITISRDTSKNQFSLKLSSVTAADTAVYYCARERNYDYDDYYYAMDYWGQGTTLTVSA
VL: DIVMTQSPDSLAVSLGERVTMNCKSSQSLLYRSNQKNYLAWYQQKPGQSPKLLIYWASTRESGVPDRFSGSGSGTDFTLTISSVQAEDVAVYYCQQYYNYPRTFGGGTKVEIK
notes: One of the 24 humanized X120 versions; light chain extended by (G4S)3 linker and huOKT3 anti-CD3 scFv); also called L1+H1
B2: BC260 (VH-2+VL-1 BsAb variant) (bispecific antibody, V domains shown)
VH: B1 VH with Q1D
VL: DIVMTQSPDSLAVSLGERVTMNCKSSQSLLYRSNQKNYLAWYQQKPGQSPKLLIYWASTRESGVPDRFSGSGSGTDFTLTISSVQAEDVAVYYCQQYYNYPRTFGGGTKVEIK
notes: One of the 24 humanized X120 versions; light chain extended by (G4S)3 linker and huOKT3 anti-CD3 scFv); also called L1+H2
B3: humanized X120 clone L4+H2 (bispecific antibody, IgG1, V domains shown)
VH: B1 VH with Q1D
VL: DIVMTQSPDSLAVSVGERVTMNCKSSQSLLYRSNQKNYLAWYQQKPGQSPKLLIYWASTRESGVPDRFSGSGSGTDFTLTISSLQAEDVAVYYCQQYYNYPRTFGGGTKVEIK
notes: One of the 24 humanized X120 versions; light chain with (G4S)3 linker and huOKT3 scFv)
B4: humanized X120 clone L4+H1 (bispecific antibody, IgG1, V domains shown)
VH: B1 VH
VL: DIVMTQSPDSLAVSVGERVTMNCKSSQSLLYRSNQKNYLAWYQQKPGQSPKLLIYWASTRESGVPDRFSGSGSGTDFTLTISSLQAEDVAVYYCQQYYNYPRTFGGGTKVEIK
notes: as for B3
B5: humanized X120 clone L2+H1 (bispecific antibody, IgG1, V domains shown)
VH: B1 VH
VL: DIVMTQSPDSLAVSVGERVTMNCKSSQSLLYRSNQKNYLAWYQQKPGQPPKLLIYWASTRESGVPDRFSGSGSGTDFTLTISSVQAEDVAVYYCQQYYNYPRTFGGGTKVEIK
notes: as for B3

Experiments:
Human STEAP1 [1] = biological target: T1, Human STEAP1 (human, UniProt Q9UHE8 1-339); assay: flow cytometry on TC32 cells after repeated washes in PBS with 2 mM EDTA
T1 construct: Endogenous on Ewing's sarcoma cell lines (TC32 and others) and prostate cancer cell lines; as STP1h transfected into HEK293 cells with a lentiviral vector (GFP part of the transgene); also called STP1h
T1 sequence (Q9UHE8 whole entry): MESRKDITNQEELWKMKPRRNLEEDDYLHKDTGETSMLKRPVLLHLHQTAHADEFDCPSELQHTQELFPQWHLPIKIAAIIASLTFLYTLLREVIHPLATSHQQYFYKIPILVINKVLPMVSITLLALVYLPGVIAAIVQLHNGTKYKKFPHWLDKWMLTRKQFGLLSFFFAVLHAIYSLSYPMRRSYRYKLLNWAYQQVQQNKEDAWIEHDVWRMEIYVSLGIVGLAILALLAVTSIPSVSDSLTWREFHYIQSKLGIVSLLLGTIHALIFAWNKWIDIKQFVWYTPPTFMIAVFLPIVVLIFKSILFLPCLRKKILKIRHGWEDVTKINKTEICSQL
Protocol: Following binding of the primary antibody, cells were washed in PBS with 2 mM EDTA from 1 to 10 times. After each wash cells were stained with the secondary PE-conjugated goat anti-human IgG antibody and washed once with PBS for flow cytometry. Mean fluorescence intensity (MFI) was normalized to time 1 and depicted in FIG. 4B. While chimeric antibody dropped to below 50% after first wash, clones L1+H1, L1+H2, L1+H5 and L2+H2 remained above 50% through wash #8 and therefore scored as slow koff.
After initial staining (FIG. 4A), ten different clones, including the chimeric BsAb clone, were chosen for further study. To assess binding of these ten clones to TC32 cells, following incubation of the BsAbs, the cells were subjected to ten washes with PBS. An aliquot of the binding reaction after each wash was stained with a fluorochrome labelled anti-human secondary antibody. The extent of binding of the anti-STEAP1 BsAbs to TC32 cells was measured using flow cytometry.

Human STEAP1 [2] = biological target: T1, Human STEAP1; assay: flow cytometry staining of TC32 cells with different doses

Binder | Mean fluorescence intensity (MFI) normalized to time 1, through wash #8 (Human STEAP1 [1]) | binding result (Human STEAP1 [2])
B1 | > 50% | 
B2 | > 50% | 
B3 |  | binds
B4 |  | binds
B5 |  | binds
